Test results taken from the supplement of paper PMC9112550, “Optimization of the antimicrobial peptide Bac7 by deep mutational scanning” (BMC Biology, 2022).

These sequences were tested on Escherichia coli TOP10 (assay: shrunken log2 fold change of peptide-encoding DNA abundance (4.5 h post-induction vs induction); higher = less antimicrobial activity (less host growth inhibition)). Settings: time post-induction: 4.5 h; library: site-saturation at positions 5, 18, 19, 20.
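Further: peptides expressed intracellularly from a pBAD plasmid library in pooled LB shake-flask culture, induced with 0.3% L-arabinose, DNA abundance read by NGS, three biological replicates, DESeq2 with apeglm shrinkage.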

Sequence | shrunken log2 fold change
RRIRRRPPRLPRPRPRPDFVPRP | -0.0983
RRIRRRPPRLPRPRPRPDGGPRP | 0.149
RRIRRRPPRLPRPRPRPDGQPRP | 0.298
RRIRRRPPRLPRPRPRPDGRPRP | 0.0193
RRIRRRPPRLPRPRPRPDHHPRP | -0.254
RRIRRRPPRLPRPRPRPDHNPRP | 0.121
RRIRRRPPRLPRPRPRPDIRPRP | -0.294
RRIRRRPPRLPRPRPRPDIVPRP | 0.17
RRIRRRPPRLPRPRPRPDKDPRP | 0.00839
RRIRRRPPRLPRPRPRPDKNPRP | 0.0344
RRIRRRPPRLPRPRPRPDKQPRP | 0.0803
RRIRRRPPRLPRPRPRPDKSPRP | 0.00757
RRIRRRPPRLPRPRPRPDMGPRP | 0.00408
RRIRRRPPRLPRPRPRPDMIPRP | -0.0332
RRIRRRPPRLPRPRPRPDNAPRP | -0.227
RRIRRRPPRLPRPRPRPDNIPRP | 0.123
RRIRRRPPRLPRPRPRPDQQPRP | 0.0145
RRIRRRPPRLPRPRPRPDQWPRP | 0.224
RRIRRRPPRLPRPRPRPDRIPRP | 0.14
RRIRRRPPRLPRPRPRPDRVPRP | -0.203
RRIRRRPPRLPRPRPRPDSIPRP | -0.199
RRIRRRPPRLPRPRPRPDTMPRP | 0.0801
RRIRRRPPRLPRPRPRPDTTPRP | 0.192
RRIRRRPPRLPRPRPRPDWFPRP | 0.276
RRIRRRPPRLPRPRPRPDWHPRP | -0.0494

Sequence | shrunken log2 fold change
RRIRRRPPRLPRPRPRPDWLPRP | 0.365
RRIRRRPPRLPRPRPRPDYFPRP | -0.0877
RRIRRRPPRLPRPRPRPDYNPRP | -0.0973
RRIRRRPPRLPRPRPRPECLPRP | 0.635
RRIRRRPPRLPRPRPRPEDGPRP | 0.445
RRIRRRPPRLPRPRPRPEDSPRP | 0.0554
RRIRRRPPRLPRPRPRPEDWPRP | 0.791
RRIRRRPPRLPRPRPRPEEKPRP | -0.00133
RRIRRRPPRLPRPRPRPEERPRP | 0.34
RRIRRRPPRLPRPRPRPEEYPRP | -0.173
RRIRRRPPRLPRPRPRPEFDPRP | 0.486
RRIRRRPPRLPRPRPRPEGLPRP | 2.59
RRIRRRPPRLPRPRPRPEGRPRP | 0.89
RRIRRRPPRLPRPRPRPEHWPRP | 0.315
RRIRRRPPRLPRPRPRPEKWPRP | -0.00174
RRIRRRPPRLPRPRPRPELEPRP | 1.16
RRIRRRPPRLPRPRPRPELRPRP | 0.463
RRIRRRPPRLPRPRPRPEMNPRP | 0.406
RRIRRRPPRLPRPRPRPEMSPRP | 0.0923
RRIRRRPPRLPRPRPRPENFPRP | -0.0287
RRIRRRPPRLPRPRPRPENTPRP | -0.0822
RRIRRRPPRLPRPRPRPENYPRP | 0.0652
RRIRRRPPRLPRPRPRPEQHPRP | 0.592
RRIRRRPPRLPRPRPRPERHPRP | 0.549
RRIRRRPPRLPRPRPRPESAPRP | 0.493

Sequence | shrunken log2 fold change
RRIRRRPPRLPRPRPRPESTPRP | 0.571
RRIRRRPPRLPRPRPRPETPPRP | 1.12
RRIRRRPPRLPRPRPRPETWPRP | 0.234
RRIRRRPPRLPRPRPRPEVYPRP | 0.0769
RRIRRRPPRLPRPRPRPEWGPRP | 0.0686
RRIRRRPPRLPRPRPRPEWHPRP | -0.107
RRIRRRPPRLPRPRPRPEYFPRP | 0.2
RRIRRRPPRLPRPRPRPFCAPRP | 0.488
RRIRRRPPRLPRPRPRPFECPRP | 0.036
RRIRRRPPRLPRPRPRPFEKPRP | -0.0125
RRIRRRPPRLPRPRPRPFEPPRP | 0.152
RRIRRRPPRLPRPRPRPFFFPRP | 0.504
RRIRRRPPRLPRPRPRPFFVPRP | 0.283
RRIRRRPPRLPRPRPRPFFWPRP | 0.381
RRIRRRPPRLPRPRPRPFGVPRP | 0.0764
RRIRRRPPRLPRPRPRPFHGPRP | -0.17
RRIRRRPPRLPRPRPRPFIEPRP | 0.0206
RRIRRRPPRLPRPRPRPFIHPRP | -0.18
RRIRRRPPRLPRPRPRPFILPRP | -0.293
RRIRRRPPRLPRPRPRPFINPRP | -0.211
RRIRRRPPRLPRPRPRPFKLPRP | -0.0153
RRIRRRPPRLPRPRPRPFNRPRP | -0.557
RRIRRRPPRLPRPRPRPFNWPRP | 0.0111
RRIRRRPPRLPRPRPRPFPGPRP | -0.143
RRIRRRPPRLPRPRPRPFQYPRP | -0.0414

Sequence | shrunken log2 fold change
RRIRRRPPRLPRPRPRPFSCPRP | 0.082
RRIRRRPPRLPRPRPRPFSDPRP | -0.311
RRIRRRPPRLPRPRPRPFSMPRP | 0.0721
RRIRRRPPRLPRPRPRPFTAPRP | 0.128
RRIRRRPPRLPRPRPRPFTLPRP | -0.2
RRIRRRPPRLPRPRPRPFTNPRP | 0.103
RRIRRRPPRLPRPRPRPFVDPRP | 0.243
RRIRRRPPRLPRPRPRPFVMPRP | -0.0623
RRIRRRPPRLPRPRPRPFWIPRP | 0.0724
RRIRRRPPRLPRPRPRPGDTPRP | 0.0234
RRIRRRPPRLPRPRPRPGEFPRP | -0.0272
RRIRRRPPRLPRPRPRPGFAPRP | 0.315
RRIRRRPPRLPRPRPRPGGQPRP | 0.175
RRIRRRPPRLPRPRPRPGIWPRP | 0.455
RRIRRRPPRLPRPRPRPGKIPRP | 0.343
RRIRRRPPRLPRPRPRPGKTPRP | 0.104
RRIRRRPPRLPRPRPRPGLNPRP | -0.0395
RRIRRRPPRLPRPRPRPGMGPRP | 0.581
RRIRRRPPRLPRPRPRPGNGPRP | 0.372
RRIRRRPPRLPRPRPRPGNYPRP | -0.0441
RRIRRRPPRLPRPRPRPGPAPRP | 0.562
RRIRRRPPRLPRPRPRPGTAPRP | 0.414
RRIRRRPPRLPRPRPRPGTYPRP | -0.0906
RRIRRRPPRLPRPRPRPGWKPRP | 0.136
RRIRRRPPRLPRPRPRPGYAPRP | 0.259

Sequence | shrunken log2 fold change
RRIRRRPPRLPRPRPRPGYDPRP | 0.0506
RRIRRRPPRLPRPRPRPHASPRP | 0.201
RRIRRRPPRLPRPRPRPHCFPRP | 0.118
RRIRRRPPRLPRPRPRPHCKPRP | 0.298
RRIRRRPPRLPRPRPRPHDEPRP | 0.18
RRIRRRPPRLPRPRPRPHDMPRP | -0.103
RRIRRRPPRLPRPRPRPHDSPRP | -0.0547
RRIRRRPPRLPRPRPRPHFNPRP | -0.11
RRIRRRPPRLPRPRPRPHHSPRP | -0.57
RRIRRRPPRLPRPRPRPHHVPRP | 0.296
RRIRRRPPRLPRPRPRPHHYPRP | -0.168
RRIRRRPPRLPRPRPRPHICPRP | -0.0887
RRIRRRPPRLPRPRPRPHIGPRP | -0.155
RRIRRRPPRLPRPRPRPHIYPRP | -0.0628
RRIRRRPPRLPRPRPRPHLEPRP | 0.0779
RRIRRRPPRLPRPRPRPHLQPRP | -0.0319
RRIRRRPPRLPRPRPRPHMPPRP | -0.037
RRIRRRPPRLPRPRPRPHNEPRP | -0.0783
RRIRRRPPRLPRPRPRPHPRPRP | 1.03
RRIRRRPPRLPRPRPRPHQMPRP | 0.19
RRIRRRPPRLPRPRPRPHQSPRP | 0.128
RRIRRRPPRLPRPRPRPHRHPRP | 0.0704
RRIRRRPPRLPRPRPRPHRIPRP | -0.279
RRIRRRPPRLPRPRPRPHRMPRP | -0.203
RRIRRRPPRLPRPRPRPHVDPRP | 0.027

Sequence | shrunken log2 fold change
RRIRRRPPRLPRPRPRPHVKPRP | -0.32
RRIRRRPPRLPRPRPRPHVLPRP | 0.0842
RRIRRRPPRLPRPRPRPHVQPRP | -0.143
RRIRRRPPRLPRPRPRPHVSPRP | -0.0166
RRIRRRPPRLPRPRPRPHWIPRP | 0.0716
RRIRRRPPRLPRPRPRPHYHPRP | -0.35
RRIRRRPPRLPRPRPRPIADPRP | -0.0686
RRIRRRPPRLPRPRPRPIAQPRP | 0.129
RRIRRRPPRLPRPRPRPICCPRP | 0.213
RRIRRRPPRLPRPRPRPICDPRP | 0.309
RRIRRRPPRLPRPRPRPICPPRP | -0.0986
RRIRRRPPRLPRPRPRPIDNPRP | -0.349
RRIRRRPPRLPRPRPRPIDQPRP | 0.696
RRIRRRPPRLPRPRPRPIECPRP | -0.00663
RRIRRRPPRLPRPRPRPIGHPRP | 0.113
RRIRRRPPRLPRPRPRPIGQPRP | 0.182
RRIRRRPPRLPRPRPRPIHVPRP | 0.03
RRIRRRPPRLPRPRPRPIKQPRP | 0.197
RRIRRRPPRLPRPRPRPIKSPRP | -0.254
RRIRRRPPRLPRPRPRPILCPRP | 0.48
RRIRRRPPRLPRPRPRPILMPRP | -0.00531
RRIRRRPPRLPRPRPRPINAPRP | 0.185
RRIRRRPPRLPRPRPRPINDPRP | -0.219
RRIRRRPPRLPRPRPRPIPAPRP | 0.804
RRIRRRPPRLPRPRPRPIPQPRP | 0.336
